Molecular target: T1, preMADH α subunit (Paracoccus denitrificans, UniProt P29894 29-417)
T1 sequence (looked up): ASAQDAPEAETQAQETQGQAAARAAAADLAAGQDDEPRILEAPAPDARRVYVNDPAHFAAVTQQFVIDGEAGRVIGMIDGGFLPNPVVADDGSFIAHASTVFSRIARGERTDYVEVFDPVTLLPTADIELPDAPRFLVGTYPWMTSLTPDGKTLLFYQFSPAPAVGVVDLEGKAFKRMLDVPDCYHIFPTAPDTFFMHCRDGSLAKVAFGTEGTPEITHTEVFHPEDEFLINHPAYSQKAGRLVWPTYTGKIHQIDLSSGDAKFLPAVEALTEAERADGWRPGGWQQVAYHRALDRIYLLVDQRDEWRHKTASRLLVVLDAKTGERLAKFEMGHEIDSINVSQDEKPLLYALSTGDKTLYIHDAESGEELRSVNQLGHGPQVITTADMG
Test: crystal structure

B1: preMADH β subunit (natural protein, Paracoccus denitrificans, UniProt P22619 58-188, looked up)
chain: ADAPAGTDPRAKWVPQDNDIQACDYWRHCSIDGNICDCSGGSLTNCPPGTKLATASWVASCYNPTDGQSYLIAYRDCCGYNVSGRCPCLNTEGELPVYRPEFANDIIWCFGAEDDAMTYHCTISPIVGKAS
modifications: βTrp57 monohydroxylated at the C7 carbon of the indole ring; no cross-link between βTrp57 and βTrp108
Does B1 bind?
Result: binds
